The values that follow come from IntAct's records for PubMed 23622247.

First the molecules themselves.
B1: Rho-related GTP-binding protein RhoE (Mus musculus), P61588 (parent)
chain: MKERRASQKLSSKSIMDPNQNVKCKIVVVGDSQCGKTALLHVFAKDCFPENYVPTVFENYTASFEIDTQRIELSLWDTSGSPYYDNVRPLSYPDSDAVLICFDISRPETLDSVLKKWKGEIQEFCPNTKMLLVGCKSDLRTDVSTLVELSNHRQTPVSYDQGANMAKQIGAATYIECSALQSENSVRDIFHVATLACVNKTNKNVKRNKSQRATKRISHMPSRPELSAVATDLRKDKAKSCTVM

In the first test the parent is B1. The note with it: with rhg05_human ARHGAP5, Q13017.
Sequence of rhg05_human ARHGAP5, Q13017 (Q13017 whole entry): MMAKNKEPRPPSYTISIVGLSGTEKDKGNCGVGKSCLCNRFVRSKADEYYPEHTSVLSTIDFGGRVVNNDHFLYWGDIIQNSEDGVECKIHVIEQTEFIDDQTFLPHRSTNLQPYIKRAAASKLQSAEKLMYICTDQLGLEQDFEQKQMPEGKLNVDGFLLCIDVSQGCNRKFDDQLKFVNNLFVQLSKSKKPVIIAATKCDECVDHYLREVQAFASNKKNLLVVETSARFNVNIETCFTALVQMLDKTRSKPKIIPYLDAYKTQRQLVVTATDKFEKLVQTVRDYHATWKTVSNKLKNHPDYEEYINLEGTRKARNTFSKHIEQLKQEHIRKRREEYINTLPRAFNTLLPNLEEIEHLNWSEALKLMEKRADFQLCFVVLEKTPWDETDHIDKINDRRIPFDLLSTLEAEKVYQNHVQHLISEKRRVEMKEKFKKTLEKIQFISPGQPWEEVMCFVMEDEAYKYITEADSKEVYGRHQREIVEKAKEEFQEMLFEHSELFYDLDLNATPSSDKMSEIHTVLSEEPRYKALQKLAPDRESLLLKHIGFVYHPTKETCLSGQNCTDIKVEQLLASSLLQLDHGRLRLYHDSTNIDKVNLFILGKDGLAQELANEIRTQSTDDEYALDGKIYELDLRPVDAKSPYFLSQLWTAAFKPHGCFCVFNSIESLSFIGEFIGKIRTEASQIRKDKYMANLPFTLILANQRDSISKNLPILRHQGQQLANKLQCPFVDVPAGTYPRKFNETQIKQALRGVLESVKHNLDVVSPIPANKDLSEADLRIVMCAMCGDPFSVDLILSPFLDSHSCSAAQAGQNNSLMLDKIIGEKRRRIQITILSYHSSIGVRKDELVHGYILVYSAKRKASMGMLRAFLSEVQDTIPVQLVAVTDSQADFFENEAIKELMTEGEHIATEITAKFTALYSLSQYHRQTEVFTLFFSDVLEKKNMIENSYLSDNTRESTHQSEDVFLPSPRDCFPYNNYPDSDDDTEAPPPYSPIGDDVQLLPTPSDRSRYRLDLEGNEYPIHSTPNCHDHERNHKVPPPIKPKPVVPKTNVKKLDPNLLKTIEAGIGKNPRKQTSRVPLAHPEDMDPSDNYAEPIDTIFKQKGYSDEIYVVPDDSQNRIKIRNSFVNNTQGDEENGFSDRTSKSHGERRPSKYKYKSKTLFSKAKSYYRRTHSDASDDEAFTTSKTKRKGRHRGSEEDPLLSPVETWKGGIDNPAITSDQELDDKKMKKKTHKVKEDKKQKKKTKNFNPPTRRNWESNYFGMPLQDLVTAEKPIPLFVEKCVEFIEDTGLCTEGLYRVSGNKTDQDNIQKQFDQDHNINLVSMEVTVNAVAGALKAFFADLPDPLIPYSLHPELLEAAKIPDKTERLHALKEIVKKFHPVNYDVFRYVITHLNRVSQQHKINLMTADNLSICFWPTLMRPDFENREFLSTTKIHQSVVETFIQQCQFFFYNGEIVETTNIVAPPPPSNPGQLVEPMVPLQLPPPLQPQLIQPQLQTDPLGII
Regarding T55V, the “effect of a mutation on the interaction” value is reported as “disrupting interaction strength”.

Variants of B1 are the subject of another test. Conditions: with 1433b_human YWHAB.
Turning to S7A;S11A;S210A;T214A;S218A;S222A;S240A, the “effect of a mutation on the interaction” value is on record as “disrupting interaction strength”.

The variants in the next test derive from B1. The note with it: with 1433b_human YWHAB. This is another data set of the same source.
S210A;T214A;S218A: the “effect of a mutation on the interaction” value is “disrupting interaction strength”.
